From patent US7312060 come the findings set out here.

For data set [1], the target named is N- and C-terminally tagged APC protein (cell-free expressed, Example 45) (UniProt P25054).
Data set [2] concerns N- and C-terminally tagged PKA (cell-free expressed).
Data set [3] relates to N- and C-terminally tagged MDM (cell-free expressed).

Chain of UniProt P25054 (P25054 1098-1696): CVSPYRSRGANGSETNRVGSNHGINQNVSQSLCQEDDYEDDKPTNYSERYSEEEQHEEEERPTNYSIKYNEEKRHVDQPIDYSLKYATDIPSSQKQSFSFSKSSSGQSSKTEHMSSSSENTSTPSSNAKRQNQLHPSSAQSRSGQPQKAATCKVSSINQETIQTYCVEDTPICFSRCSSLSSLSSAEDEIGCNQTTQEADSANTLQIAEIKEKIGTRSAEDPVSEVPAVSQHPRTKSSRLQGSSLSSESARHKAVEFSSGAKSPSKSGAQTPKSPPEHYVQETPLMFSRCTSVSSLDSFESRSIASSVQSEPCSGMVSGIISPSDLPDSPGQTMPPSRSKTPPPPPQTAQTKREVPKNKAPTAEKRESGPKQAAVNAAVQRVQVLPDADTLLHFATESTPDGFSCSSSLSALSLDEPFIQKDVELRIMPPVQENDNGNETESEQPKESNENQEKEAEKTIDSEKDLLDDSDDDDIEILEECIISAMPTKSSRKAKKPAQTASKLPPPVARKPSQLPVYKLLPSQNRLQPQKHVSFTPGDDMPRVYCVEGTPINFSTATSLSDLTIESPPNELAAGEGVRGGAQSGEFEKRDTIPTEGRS

Caspase-3: the “protease substrate degradation monitored by ELISA” value in data set [1] was “degraded ... in a time-dependent manner”; in data set [2] it was “unaffected”; in data set [3], “degraded ... in a time-dependent manner”.
